The target in assay [1] is human DLL3 on cells (human), Q9NYJ7. Put plainly: cell-based or functional assay.
In assay [2] the target is human DLL3 on cells (human) (UniProt Q9NYJ7). In words: cell-based or functional assay.
human DLL3 on cells (human), sequence (Q9NYJ7 27-618): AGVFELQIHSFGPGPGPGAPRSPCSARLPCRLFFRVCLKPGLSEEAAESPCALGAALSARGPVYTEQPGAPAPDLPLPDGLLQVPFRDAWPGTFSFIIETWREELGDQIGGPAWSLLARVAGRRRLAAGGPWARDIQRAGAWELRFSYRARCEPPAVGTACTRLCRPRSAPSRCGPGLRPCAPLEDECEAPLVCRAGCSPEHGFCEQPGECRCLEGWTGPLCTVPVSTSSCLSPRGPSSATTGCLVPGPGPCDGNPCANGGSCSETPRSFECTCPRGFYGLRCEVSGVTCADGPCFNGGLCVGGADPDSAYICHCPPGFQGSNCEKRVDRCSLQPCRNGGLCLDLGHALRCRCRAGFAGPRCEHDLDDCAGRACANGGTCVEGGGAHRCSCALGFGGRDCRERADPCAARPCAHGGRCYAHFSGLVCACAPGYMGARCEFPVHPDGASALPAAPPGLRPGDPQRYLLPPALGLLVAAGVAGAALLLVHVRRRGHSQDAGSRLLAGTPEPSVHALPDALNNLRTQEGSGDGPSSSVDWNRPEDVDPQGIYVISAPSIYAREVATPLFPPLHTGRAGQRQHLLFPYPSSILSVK

human DLL3 on cells (human), Q9NYJ7, sequence (Q9NYJ7 27-618): as above

B1: hSC16.56-ADC1 (antibody, human IgG1, V domains shown)
VL: EIVMTQSPATLSVSPGERATLSCKASQSVSNDVVWYQQKPGQAPRLLIYYASNRYTGIPARFSGSGSGTEFTLTISSLQSEDFAVYYCQQDYTSPWTFGQGTKLEIKR
VH: QVQLVQSGAEVKKPGASVKVSCKASGYTFTNYGMNWVRQAPGQGLEWMGWINTYTGEPTYADDFKGRVTMTTDTSTSTAYMELRSLRSDDTAVYYCARIGDSSPSDYWGQGTLVTVSS
modifications: here or on the partner: PBD dimer drug-linker ADC1 on reduced Cys residues (positions not stated)
B1 yielded a dose that killed 50% of naïve KDY66 cells (7 days, Cell Titer Glo) in assay [1] of 13.3 pM.

B2: hSC16.15-ADC1 (antibody, human IgG1, V domains shown)
VL: AIQLTQSPSSLSASVGDRVTITCRASENIYYNLAWYQQKPGKAPKLLIYTANSLEDGVPSRFSGSGSGTDFTLTISSLQPEDFATYFCKQAYDVPPTFGGGTKLEIK
VH: QVQLVQSGAEVKKPGASVKVSCKASGYTFTRYWIHWIRQAPGQGLEWMGYINPTTVYTEFNQNFKDRVTMTRDTSTSTVYMELSSLRSEDTAVYYCARGGSNFFDYWGQGTTVTVSS
modifications: here or on the partner: PBD dimer drug-linker ADC1 on reduced Cys residues (positions not stated)
As to B2, in assay [1], the concentration that killed 50% of LU37 NTX cells (7 days, Cell Titer Glo) was below 10 ng/mL.

B3: SC16.15 (antibody, V domains shown)
VH: QVQLQQSGAELAKPGASVKMSCKASGYTFTRYWIHWIKQRPGQGLEWIGYINPTTVYTEFNQNFKDKATLTADKSSTTASMQLSSLTSEDSAVYYCARGGSNFFDYWGQGTTLTVSS
VL: DIQMTQSPASLAASVGETVAITCRASENIYYNLAWYQQKQGKSPQLLIYTANSLEDGVPSRFSGSGSGTQYSLKINSMQPEDSATYFCKQAYDVPPTFGGGTKLEIK
B3 came in with an EC50 of killing of OV26 NTX tumor cells with anti-mouse IgG Fab-saporin in assay [2] of 0.14 pM.

B4: SC16.34 (antibody, V domains shown)
VH: QIQLVQSGPELKRPGETVKISCKASGYTFTNYGMNWVKQAPGKGLKWMGWINTYTGDPTYADDFKGRFAFSLETSASTAYLQINNLKNEDTATYFCARIGGNSPSDYWGQGTSLTVSS
VL: SIVMTQTPKFLLVSAGDRVTITCKASQSVSNDVAWYQQKPGQSPKLLIYYASNRYSGVPDRFTGSGYGTDFTFTISTVQAEDLAVYFCQQDYSSPWTFGGGTKLEIK
The molecule B4 registered an EC50 of killing of OV26 NTX tumor cells with anti-mouse IgG Fab-saporin in assay [2] of 5.7 pM.

The values are drawn from patent US20140370037A1.
